The results in this text go back to patent publication US20190241669A1 (published 2019).

The target of one test is T1, cynomolgus monkey BCMA (cynomolgus monkey, UniProt A0A2K5UD97 1-53).
T1 construct: Soluble analyte in SPR; construct not described; also called cyBCMA; Cyno BCMA
The experiment in a line: SPR, IgG on chip, cyBCMA analyte.

For a further test, the target named is Human BCMA (human) (UniProt Q02223). As to the kind of experiment: SPR, IgG on chip, huBCMA analyte.

T1 sequence (A0A2K5UD97 entry or part of it): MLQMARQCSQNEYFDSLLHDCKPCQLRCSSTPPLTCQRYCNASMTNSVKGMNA

B1: A02_Rd4_6nM_C07 (antibody, V domains shown)
VH: EVQLLESGGGLVQPGGSLRLSCAASGFTFSSYAMNWVRQAPGKGLEWVSAIGGSGGSLPYADSVKGRFTISRDNSKNTLYLQMNSLRAEDTAVYYCARYWPMDSWGQGTLVTVSS
VL: EIVLTQSPGTLSLSPGERATLSCRASQSVSPYYLAWYQQKPGQAPRLLMYDASIRATGIPDRFSGSGSGTDFTLTISRLEPEDFAVYYCQQYERWPLTFGQGTKVEIK
notes: IgG
As to B1, in the test with cynomolgus monkey BCMA, the Kd is 1.14 nM, the koff is 0.000786 s⁻¹ and the kon came out at 691000 M⁻¹ s⁻¹. Further, in the test with Human BCMA (human), the Kd worked out at 0.128 nM, the koff was 0.000189 s⁻¹ and the kon worked out at 1.48e+06 M⁻¹ s⁻¹.

B2: A02_Rd4_6nM_C26 (antibody, V domains shown)
VH: EVQLLESGGGLVQPGGSLRLSCAASGFTFSSYAMNWVRQAPGKGLEWVSAISDSGGSTYYADSVKGRFTISRDNSKNTLYLQMNSLRAEDTAVYYCARYWPMSLWGQGTLVTVSS
VL: EIVLTQSPGTLSLSPGERATLSCRASQSVSSLYLAWYQQKPGQAPRLLMYDASIRATGIPDRFSGSGSGTDFTLTISRLEPEDFAVYYCQQYQVWPLTFGQGTKVEIK
notes: IgG
As for B2, in the test with cynomolgus monkey BCMA, binding was put at a Kd of 0.203 nM, the koff was determined as 0.000448 s⁻¹ and the kon stood at 2.21e+06 M⁻¹ s⁻¹. For the same molecule, in the test with Human BCMA (human), the Kd stood at 0.033 nM, the koff was 0.000139 s⁻¹ and the association rate constant (kon) was 4.26e+06 M⁻¹ s⁻¹.

B3: C01_Rd4_0.6nM_C03 (antibody, V domains shown)
VH: EVQLLESGGGLVQPGGSLRLSCAASGFTFSSYPMSWVRQAPGKGLEWVSAIGGSGGSLPYADSVKGRFTISRDNSKNTLYLQMNSLRAEDTAVYYCARYWPMDSWGQGTLVTVSS
VL: EIVLTQSPGTLSLSPGERATLSCRASCDVSSTYLAWYQQKPGQAPRLLIYDASSRAPGIPDRFSGSGSGTDFTLTISRLEPEDFAVYYCQQYMRSPLTFGQGTKVEIK
notes: IgG
In the test with cynomolgus monkey BCMA, B3 returned a dissociation constant (Kd) of 2.53 nM, a koff of 0.0119 s⁻¹ and a kon of 4.72e+06 M⁻¹ s⁻¹. Moreover, in the test with Human BCMA (human), the Kd was 0.964 nM, the koff was found to be 0.015 s⁻¹ and the on-rate (kon) stood at 1.55e+07 M⁻¹ s⁻¹.

B4: A02_Rd4_6nM_C25 (antibody, V domains shown)
VH: EVQLLESGGGLVQPGGSLRLSCAASGFTFSSYAMNWVRQAPGKGLEWVSAISDSGGSRWYADSVKGRFTISRDNSKNTLYLQMNSLRAEDTAVYYCARYWPMTPWGQGTLVTVSS
VL: EIVLTQSPGTLSLSPGERATLSCRASQSVSSSYLAWYQQKPGQAPRLLMYDASIRATGIPDRFSGSGSGTDFTLTISRLEPEDFAVYYCQQYLDWPLTFGQGTKVEIK
notes: IgG
In the test with cynomolgus monkey BCMA, B4 showed a Kd of 0.22 nM, a koff of 0.00033 s⁻¹ and a kon of 1.5e+06 M⁻¹ s⁻¹. In the test with Human BCMA (human), this molecule gave a Kd of 0.065 nM, a koff of 0.00018 s⁻¹ and a kon of 2.75e+06 M⁻¹ s⁻¹.

B5: C01_Rd4_0.6nM_C06 (antibody, V domains shown)
VH: EVQLLESGGGLVQPGGSLRLSCAASGFTFSSYPMSWVRQAPGKGLEWVSAIGGSGGSLPYADSVKGRFTISRDNSKNTLYLQMNSLRAEDTAVYYCARYWPMDSWGQGTLVTVSS
VL: EIVLTQSPGTLSLSPGERATLSCRASEAVPSTYLAWYQQKPGQAPRLLIYDASSRAPGIPDRFSGSGSGTDFTLTISRLEPEDFAVYYCQQYSAFPLTFGQGTKVEIK
notes: IgG
In the test with cynomolgus monkey BCMA, B5 came in with a Kd of 1.95 nM, a koff of 0.0121 s⁻¹ and a kon of 6.22e+06 M⁻¹ s⁻¹. Also, in the test with Human BCMA (human), the Kd was found to be 0.847 nM, the koff came out at 0.0154 s⁻¹ and the kon is 1.82e+07 M⁻¹ s⁻¹.

B6: A02_Rd4_6nM_C19 (antibody, V domains shown)
VH: EVQLLESGGGLVQPGGSLRLSCAASGFTFSSYAMNWVRQAPGKGLEWVSAISDSGGSRWYADSVKGRFTISRDNSKNTLYLQMNSLRAEDTAVYYCARYWPMSDWGQGTLVTVSS
VL: EIVLTQSPGTLSLSPGERATLSCRASQSVSVLYLAWYQQKPGQAPRLLMYDASIRATGIPDRFSGSGSGTDFTLTISRLEPEDFAVYYCQQYLAWPLTFGQGTKVEIK
notes: IgG
In the test with cynomolgus monkey BCMA, B6 showed a Kd of 0.26 nM, a koff of 0.000661 s⁻¹ and a kon of 2.54e+06 M⁻¹ s⁻¹. In the test with Human BCMA (human), the Kd is 0.049 nM, the koff amounted to 0.000148 s⁻¹ and the kon was found to be 3e+06 M⁻¹ s⁻¹.

B7: A02_Rd4_6nM_C10 (antibody, V domains shown)
VH: EVQLLESGGGLVQPGGSLRLSCAASGFTFSSYAMNWVRQAPGKGLEWVSAISDSGGSCWYADSVKGRFTISRDNSKNTLYLQMNSLRAEDTAVYYCARYWPMTPWGQGTLVTVSS
VL: EIVLTQSPGTLSLSPGERATLSCRASQSVEMSYLAWYQQKPGQAPRLLMYDASIRATGIPDRFSGSGSGTDFTLTISRLEPEDFAVYYCQQYAHWPLTFGQGTKVEIK
notes: IgG
As to B7, in the test with cynomolgus monkey BCMA, binding was put at a Kd of 0.472 nM, the dissociation rate constant (koff) was determined as 0.000898 s⁻¹ and the kon was found to be 1.9e+06 M⁻¹ s⁻¹. Further, in the test with Human BCMA (human), the Kd came out at 0.07 nM, the off-rate constant (koff) came to 0.000315 s⁻¹ and the kon amounted to 4.51e+06 M⁻¹ s⁻¹.

B8: A02_Rd4_6nM_C22 (antibody, V domains shown)
VH: EVQLLESGGGLVQPGGSLRLSCAASGFTFSSYAMNWVRQAPGKGLEWVSAVLDSGGSTYYADSVKGRFTISRDNSKNTLYLQMNSLRAEDTAVYYCARYWPMTPWGQGTLVTVSS
VL: EIVLTQSPGTLSLSPGERATLSCRASQSVSSSYLAWYQQKPGQAPRLLMYDASIRATGIPDRFSGSGSGTDFTLTISRLEPEDFAVYYCQQYQVWPLTFGQGTKVEIK
notes: IgG
In the test with cynomolgus monkey BCMA, B8 showed a Kd of 0.176 nM, a koff of 0.000324 s⁻¹ and a kon of 1.84e+06 M⁻¹ s⁻¹. For the same molecule, in the test with Human BCMA (human), the Kd amounted to 0.054 nM, the koff worked out at 0.000182 s⁻¹ and the kon is 3.38e+06 M⁻¹ s⁻¹.

B9: A02_Rd4_6nM_C08 (antibody, V domains shown)
VH: EVQLLESGGGLVQPGGSLRLSCAASGFTFSSYAMNWVRQAPGKGLEWVSAILDSGGSTYYADSVKGRFTISRDNSKNTLYLQMNSLRAEDTAVYYCARYWPMSPWGQGTLVTVSS
VL: EIVLTQSPGTLSLSPGERATLSCRASQSVSFLYLAWYQQKPGQAPRLLMYDASIRATGIPDRFSGSGSGTDFTLTISRLEPEDFAVYYCQQYGSWPLTFGQGTKVEIK
notes: IgG
In the test with cynomolgus monkey BCMA, B9 had a Kd of 5.07 nM, a koff of 0.0113 s⁻¹ and a kon of 2.23e+06 M⁻¹ s⁻¹. Moreover, in the test with Human BCMA (human), the dissociation constant Kd was 0.188 nM, the koff is 0.000738 s⁻¹ and the kon was found to be 3.92e+06 M⁻¹ s⁻¹.

B10: C01_Rd4_0.6nM_C09 (antibody, V domains shown)
VH: EVQLLESGGGLVQPGGSLRLSCAASGFTFSSYPMSWVRQAPGKGLEWVSAIGGSGGSLPYADSVKGRFTISRDNSKNTLYLQMNSLRAEDTAVYYCARYWPMDSWGQGTLVTVSS
VL: EIVLTQSPGTLSLSPGERATLSCRASQSVSSLFLAWYQQKPGQAPRLLIYDASSRAPGIPDRFSGSGSGTDFTLTISRLEPEDFAVYYCQQYSAWPLTFGQGTKVEIK
notes: IgG
In the test with cynomolgus monkey BCMA, B10 gave a Kd of 1.77 nM, a koff of 0.00936 s⁻¹ and a kon of 5.28e+06 M⁻¹ s⁻¹. In the test with Human BCMA (human), this molecule registered a dissociation constant Kd of 0.545 nM, a koff of 0.00825 s⁻¹ and a kon of 1.51e+07 M⁻¹ s⁻¹.

B11: A02_Rd4_6nM_C23 (antibody, V domains shown)
VH: EVQLLESGGGLVQPGGSLRLSCAASGFTFSSYAMNWVRQAPGKGLEWVSAISDSGGSGWYADSVKGRFTISRDNSKNTLYLQMNSLRAEDTAVYYCARYWPMSLWGQGTLVTVSS
VL: EIVLTQSPGTLSLSPGERATLSCRASQSVSVEYLAWYQQKPGQAPRLLMYDASIRATGIPDRFSGSGSGTDFTLTISRLEPEDFAVYYCQQYARWPLTFGQGTKVEIK
notes: IgG
As to B11, in the test with cynomolgus monkey BCMA, the Kd turned out to be 0.157 nM, the koff worked out at 0.000414 s⁻¹ and the on-rate (kon) stood at 2.63e+06 M⁻¹ s⁻¹. In the test with Human BCMA (human), the dissociation constant Kd was determined as 0.021 nM, the off-rate constant (koff) stood at 0.000255 s⁻¹ and the kon is 1.22e+07 M⁻¹ s⁻¹.
